Source: PMC4491177, “Co-translational capturing of nascent ribosomal proteins by their dedicated chaperones” (Nature Communications, 2015)

B1: Sqt1 (53C construct): WD-repeat β-propeller domain of Sqt1; deletion of amino acids 1–52 (protein)
chain: MSNNSLTYFDKHTDSVFAIGHHPNLPLVCTGGGDNLAHLWTSHSQPPKFAGTLTGYGESVISCSFTSEGGFLVTADMSGKVLVHMGQKGGAQWKLASQMQEVEEIVWLKTHPTIARTFAFGATDGSVWCYQINEQDGSLEQLMSGFVHQQDCSMGEFINTDKGENTLELVTCSLDSTIVAWNCFTGQQLFKITQAEIKGLEAPWISLSLAPETLTKGNSGVVACGSNNGLLAVINCNNGGAILHLSTVIELKPEQDELDASIESISWSSKFSLMAIGLVCGEILLYDTSAWRVRHKFVLEDSVTKLMFDNDDLFASCINGKVYQFNARTGQEKFVCVGHNMGVLDFILLHPVANTGTEQKRKVITAGDEGVSLVFEVPN
B2: full-length Rpl10: full-length ribosomal protein Rpl10 (protein)
chain: MARRPARCYRYQKNKPYPKSRYNRAVPDSKIRIYDLGKKKATVDEFPLCVHLVSNELEQLSSEALEAARICANKYMTTVSGRDAFHLRVRVHPFHVLRINKMLSCAGADRLQQGMRGAWGKPHGLAARVDIGQIIFSVRTKDSNKDVVVEGLRRARYKFPGQQKIILSKKWGFTNLDRPEYLKKREAGEVKDDGAFVKFLSKKGSLENNIREFPEYFAAQA
modifications: left off: Gal4 DNA-binding domain or Gal4 activation domain (which of the two is not stated), end not stated, kept
B3: Sqt1 Glu315 to lysine: Sqt1 variant, Glu315 mutated to lysine (protein, UniProt P35184 1-431, looked up, variant E315K)
Ribosome assembly protein SQT1: MEPQEEFITTEEVEQEIVPTVEVEQDVPVDIEGENDDDDEMMNDDEEALEVDMSNNSLTYFDKHTDSVFAIGHHPNLPLVCTGGGDNLAHLWTSHSQPPKFAGTLTGYGESVISCSFTSEGGFLVTADMSGKVLVHMGQKGGAQWKLASQMQEVEEIVWLKTHPTIARTFAFGATDGSVWCYQINEQDGSLEQLMSGFVHQQDCSMGEFINTDKGENTLELVTCSLDSTIVAWNCFTGQQLFKITQAEIKGLEAPWISLSLAPETLTKGNSGVVACGSNNGLLAVINCNNGGAILHLSTVIELKPEQDELDASIKSISWSSKFSLMAIGLVCGEILLYDTSAWRVRHKFVLEDSVTKLMFDNDDLFASCINGKVYQFNARTGQEKFVCVGHNMGVLDFILLHPVANTGTEQKRKVITAGDEGVSLVFEVPN

Key:
Rpl10 = test: Y2H interaction with Rpl10; type: binding, S. cerevisiae; details: Sqt1 variants; PJ69-4A, HIS3 and ADE2 reporters, 3 days at 30 °C
Description: For Y2H interaction assays, plasmids expressing bait proteins, fused to the Gal4 DNA-binding domain (G4BD), and prey proteins, fused to the Gal4 activation domain (G4AD), were co-transformed into reporter strain PJ69-4A. Y2H interactions were documented by spotting representative transformants in 10-fold serial dilution steps onto SC-Trp-Leu, SC-Trp-Leu-His (HIS3 reporter) and SC-Trp-Leu-Ade (ADE2 reporter) plates, which were incubated for 3 days at 30 °C. Growth on SC-Trp-Leu-His plates is indicative of a weak/moderate interaction, whereas only relatively strong interactions permit growth on SC-Trp-Leu-Ade plates.

[1] = soluble expression in E. coli; type: physicochemical; details: data not shown for Rpl10

Row | Molecule | Y2H interaction with Rpl10 (Rpl10) | soluble expression in E. coli [1]
1 | B1 | sufficient to mediate the interaction both with full-length or the N-terminal residues | –
2 | B2 | – | expressed as an insoluble protein
3 | B3 | abolished the interaction between Sqt1 and Rpl10 | –
